Assay results published in publication PMC9569990 (International Journal of Molecular Sciences, 2022).

Legend:
Experiment in all cases: SPR; cytokine immobilised on ProteOn GLH sensor chip by amine coupling (9,000-14,000 RU); S100P (wild type or mutant) as analyte, 62 nM-16 µM; 25 °C; 10 mM HEPES, 150 mM NaCl, 1 mM CaCl2, 0.05% TWEEN 20, pH 7.4; heterogeneous ligand model (two ligand populations), one-site model for IL-13; values averaged over analyte concentrations (n = 3-5)
Settings in all cases: both partners purified
Interleukin-31 = biological target: T1, Interleukin-31 (human, UniProt Q6EBC2 24-164)
T1 construct: Interleukin-31, human, UniProt Q6EBC2; see the manufacturer's catalogue number; also called IL-31; source: bought: PeproTech (source E. coli)
T1 sequence (looked up): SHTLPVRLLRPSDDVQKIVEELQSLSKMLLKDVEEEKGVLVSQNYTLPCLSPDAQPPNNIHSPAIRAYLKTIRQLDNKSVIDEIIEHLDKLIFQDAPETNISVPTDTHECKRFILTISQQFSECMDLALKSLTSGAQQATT

Interleukin-35 = biological target: T2, Interleukin-35 (human, UniProt P29459 23-219; Q14213 21-229)
T2 construct: the chain used for the SCOP family assignment; also called IL-35; source: bought: PeproTech (source HEK293)
T2 sequence (looked up) 1: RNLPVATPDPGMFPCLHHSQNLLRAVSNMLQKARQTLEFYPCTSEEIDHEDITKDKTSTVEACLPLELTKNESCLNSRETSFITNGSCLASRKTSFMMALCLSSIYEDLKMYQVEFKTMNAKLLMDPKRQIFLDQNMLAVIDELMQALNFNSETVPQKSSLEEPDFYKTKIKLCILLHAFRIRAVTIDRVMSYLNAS
T2 sequence (looked up) 2: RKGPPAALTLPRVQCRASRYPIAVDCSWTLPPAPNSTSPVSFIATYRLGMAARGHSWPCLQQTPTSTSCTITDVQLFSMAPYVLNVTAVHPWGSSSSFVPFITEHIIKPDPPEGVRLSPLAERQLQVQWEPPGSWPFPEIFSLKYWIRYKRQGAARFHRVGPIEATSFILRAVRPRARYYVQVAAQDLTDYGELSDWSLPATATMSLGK

Somatotropin = biological target: T3, Somatotropin (human, UniProt P01241 27-217)
T3 construct: Somatotropin (growth hormone), human, UniProt P01241; see the manufacturer's catalogue number; also called GH; growth hormone; source: bought: PeproTech (source E. coli)

Interleukin-20 = biological target: T4, Interleukin-20 (human, UniProt Q9NYY1 25-176)
T4 construct: Interleukin-20, human, UniProt Q9NYY1; see the manufacturer's catalogue number; also called IL-20; source: bought: PeproTech (source E. coli)
T4 sequence (looked up): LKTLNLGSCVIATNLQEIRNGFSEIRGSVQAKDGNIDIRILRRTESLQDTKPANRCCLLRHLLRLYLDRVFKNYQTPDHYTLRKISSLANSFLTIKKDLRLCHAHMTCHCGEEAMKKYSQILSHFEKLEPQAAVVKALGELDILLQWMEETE

Interferon ω-1 = biological target: T5, Interferon ω-1 (human, UniProt P05000 22-195)
T5 construct: Interferon omega-1, human, UniProt P05000; see the manufacturer's catalogue number; also called IFN-ω1; source: bought: PeproTech (source E. coli)

Interleukin-15 = biological target: T6, Interleukin-15 (human, UniProt P40933 49-162)
T6 construct: Interleukin-15, human, UniProt P40933; see the manufacturer's catalogue number; also called IL-15; source: bought: PeproTech (source E. coli)
T6 sequence (P40933 49-162): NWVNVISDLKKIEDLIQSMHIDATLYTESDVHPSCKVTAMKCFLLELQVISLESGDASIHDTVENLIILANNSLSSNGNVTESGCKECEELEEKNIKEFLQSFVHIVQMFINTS

T3 sequence (P01241 27-217): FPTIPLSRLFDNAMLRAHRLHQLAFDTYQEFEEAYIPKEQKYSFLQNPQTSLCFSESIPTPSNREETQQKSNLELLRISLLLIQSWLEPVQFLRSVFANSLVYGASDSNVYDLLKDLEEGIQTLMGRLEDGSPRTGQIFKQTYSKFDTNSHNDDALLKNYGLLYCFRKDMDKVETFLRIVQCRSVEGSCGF
T5 sequence (P05000 22-195): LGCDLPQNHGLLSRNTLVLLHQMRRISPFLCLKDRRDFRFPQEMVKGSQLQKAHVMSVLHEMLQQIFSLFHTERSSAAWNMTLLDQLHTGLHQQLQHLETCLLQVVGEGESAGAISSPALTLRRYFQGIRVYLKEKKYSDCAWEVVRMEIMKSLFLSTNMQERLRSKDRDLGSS

B1: Human S100P protein (recombinant, Ca^2+-loaded) (natural protein)
chain: MTELETAMGMIIDVFSRYSGSEGSTQTLTKGELKVLMEKELPGFLQSGKDKDAVDKLLKDLDANGDAQVDFSEFIVFVAAITSACHKYFEKAGLK
notes: S100P protein, human, recombinant; probably the whole 95-residue protein (surmise); also called wild-type S100P; WT S100P; source: E. coli, prepared as previously described [28]
- Kd1 (heterogeneous ligand model, population 1) (Interleukin-31): 25.2 nM
- Kd2 (heterogeneous ligand model, population 2) (Interleukin-31): 202 nM
- kd1 (heterogeneous ligand model, population 1) (Interleukin-31): 0.00023 s⁻¹
- kd2 (heterogeneous ligand model, population 2) (Interleukin-31): 0.0583 s⁻¹
- Kd1 (heterogeneous ligand model, population 1) (Interleukin-35): 96.2 nM
- Kd2 (heterogeneous ligand model, population 2) (Interleukin-35): 255 nM
- kd1 (heterogeneous ligand model, population 1) (Interleukin-35): 0.000531 s⁻¹
- kd2 (heterogeneous ligand model, population 2) (Interleukin-35): 0.012 s⁻¹
- Kd1 (heterogeneous ligand model, population 1) (Somatotropin): 42.9 nM
- Kd2 (heterogeneous ligand model, population 2) (Somatotropin): 266 nM
- kd1 (heterogeneous ligand model, population 1) (Somatotropin): 0.000669 s⁻¹
- kd2 (heterogeneous ligand model, population 2) (Somatotropin): 0.0142 s⁻¹
- Kd1 (heterogeneous ligand model, population 1) (Interleukin-20): 403 nM
- Kd2 (heterogeneous ligand model, population 2) (Interleukin-20): 537 nM
- kd1 (heterogeneous ligand model, population 1) (Interleukin-20): 0.000442 s⁻¹
- kd2 (heterogeneous ligand model, population 2) (Interleukin-20): 0.0246 s⁻¹
- Kd1 (heterogeneous ligand model, population 1) (Interferon ω-1): 174 nM
- Kd2 (heterogeneous ligand model, population 2) (Interferon ω-1): 578 nM
- kd1 (heterogeneous ligand model, population 1) (Interferon ω-1): 0.000571 s⁻¹
- kd2 (heterogeneous ligand model, population 2) (Interferon ω-1): 0.00839 s⁻¹
- Kd1 (heterogeneous ligand model, population 1) (Interleukin-15): 102 nM
- Kd2 (heterogeneous ligand model, population 2) (Interleukin-15): 980 nM
- kd1 (heterogeneous ligand model, population 1) (Interleukin-15): 0.00109 s⁻¹
- kd2 (heterogeneous ligand model, population 2) (Interleukin-15): 0.0272 s⁻¹
